Data as given in the supplement of paper PMC10567573.

B1: ESR2 (parent)
chain: KSCQACRLRKCYEVGMVKCGSRRE

Variants of: B1
Assay: protein stability index of a GFP-peptide fusion (GPS, HEK-293T) (PSI 1-6); higher = more stable
Details: c terminus: a fixed tail appended
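Further: lentivirally expressed fusions sorted by FACS into six bins by GFP to DsRed ratio, PSI derived from sequencing read proportions per bin multiplied by bin number.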

| Variant | protein stability index |
| --- | --- |
| KSCQACRLRKCYEVGMVKCGSTRE | 1.92 |
| KSCQACRLRKCYEVGMVKCGSDRE | 3.02 |
| KSCQACRLRKCYEVGMVKCGSHRE | 1.97 |
| KSCQACRLRKCYEVGMVKCGSLRE | 1.33 |
| KSCQACRLRKCYEVGMVKCGSYRE | 1.66 |
| KSCQACRLRKCYEVGMVKCGSSRE | 1.91 |
| KSCQACRLRKCYEVGMVKCGSARE | 1.88 |
| KSCQACRLRKCYEVGMVKCGSFRE | 1.41 |
| KSCQACRLRKCYEVGMVKCGSGRE | 1.99 |
| KSCQACRLRKCYEVGMVKCGSQRE | 2.04 |
| KSCQACRLRKCYEVGMVKCGSIRE | 1.83 |
| KSCQACRGRKCYEVGMVKCGSRRE | 2.36 |
| KSCQACRSRKCYEVGMVKCGSRRE | 2.83 |
| KSCQACRARKCYEVGMVKCGSRRE | 2.17 |
| KSCQACRTRKCYEVGMVKCGSRRE | 2.11 |
| KSCQACRHRKCYEVGMVKCGSRRE | 2.4 |
| KSCQACRNRKCYEVGMVKCGSRRE | 2.74 |
| KSCQACRVRKCYEVGMVKCGSRRE | 1.73 |
| KSCQACRRRKCYEVGMVKCGSRRE | 2.18 |
| KSCRACRLRKCYEVGMVKCGSRRE | 2.15 |
| KSCSACRLRKCYEVGMVKCGSRRE | 2.11 |
| KSCIACRLRKCYEVGMVKCGSRRE | 1.88 |
| KSCMACRLRKCYEVGMVKCGSRRE | 2.18 |
| KDCQACRLRKCYEVGMVKCGSRRE | 1.98 |

| Variant | protein stability index |
| --- | --- |
| KRCQACRLRKCYEVGMVKCGSRRE | 2.43 |
| KNCQACRLRKCYEVGMVKCGSRRE | 1.98 |
| KFCQACRLRKCYEVGMVKCGSRRE | 1.45 |
| KLCQACRLRKCYEVGMVKCGSRRE | 1.56 |
| KICQACRLRKCYEVGMVKCGSRRE | 1.46 |
| KVCQACRLRKCYEVGMVKCGSRRE | 1.92 |
| KECQACRLRKCYEVGMVKCGSRRE | 1.96 |
| KSCQACRLRKCYVVGMVKCGSRRE | 1.6 |
| KSCQACRLRKCYMVGMVKCGSRRE | 1.7 |
| KSCQACRLRKCYFVGMVKCGSRRE | 2.23 |
| KSCQACRLRKCYRVGMVKCGSRRE | 1.95 |
| KSCQACRLRKCYWVGMVKCGSRRE | 1.49 |
| KSCQACRLRKCYLVGMVKCGSRRE | 1.64 |
| KSCQACRLRKCYHVGMVKCGSRRE | 2.89 |
| KSCQACRLRKCYEVGGVKCGSRRE | 2 |
| KSCQACRLRKCYEVGVVKCGSRRE | 1.74 |
| KSCQACRLRKCYEVGQVKCGSRRE | 1.95 |
| KSCQACRLRKCYEVGNVKCGSRRE | 2.15 |
| KSCQACRLRKCYEVGWVKCGSRRE | 1.88 |
| KSCQACRLRKCYEVGMVSCGSRRE | 2.85 |
| KSCQACRLRKCYEVGMVQCGSRRE | 1.7 |
| KSCQACRLRKCYEVGMVCCGSRRE | 2.16 |
| KSCQACRLRKCYEVGMVFCGSRRE | 1.51 |
| KSCQACRLRKCYEVGMVGCGSRRE | 1.8 |

| Variant | protein stability index |
| --- | --- |
| KSCQACRLRKCYEVGMVVCGSRRE | 2.79 |
| KSCQFCRLRKCYEVGMVKCGSRRE | 1.55 |
| KSCQMCRLRKCYEVGMVKCGSRRE | 1.36 |
| KSCQTCRLRKCYEVGMVKCGSRRE | 2.11 |
| KSCQNCRLRKCYEVGMVKCGSRRE | 1.81 |
| KSCQICRLRKCYEVGMVKCGSRRE | 2.34 |
| KSCQRCRLRKCYEVGMVKCGSRRE | 3.08 |
| KSCQPCRLRKCYEVGMVKCGSRRE | 2.3 |
| KSCQECRLRKCYEVGMVKCGSRRE | 2.39 |
| KSCQCCRLRKCYEVGMVKCGSRRE | 2.08 |
| KSCQACRLRKCYEVIMVKCGSRRE | 1.79 |
| KSCQACRLRKCYEVPMVKCGSRRE | 2.35 |
| KSCQACRLRKCYEVQMVKCGSRRE | 1.49 |
| KSCQACRLRKCYEVHMVKCGSRRE | 1.86 |
| KSCQACRLRKCYEVSMVKCGSRRE | 1.34 |
| KSCQACVLRKCYEVGMVKCGSRRE | 1.89 |
| KSCQACALRKCYEVGMVKCGSRRE | 1.32 |
| KSCQACMLRKCYEVGMVKCGSRRE | 1.48 |
| KSCQACLLRKCYEVGMVKCGSRRE | 1.74 |
| KSCQACYLRKCYEVGMVKCGSRRE | 2.58 |
| KSCQACCLRKCYEVGMVKCGSRRE | 2.5 |
| KSCQACSLRKCYEVGMVKCGSRRE | 1.89 |
| VSCQACRLRKCYEVGMVKCGSRRE | 2.31 |
| YSCQACRLRKCYEVGMVKCGSRRE | 1.45 |

| Variant | protein stability index |
| --- | --- |
| RSCQACRLRKCYEVGMVKCGSRRE | 2.22 |
| WSCQACRLRKCYEVGMVKCGSRRE | 1.65 |
| CSCQACRLRKCYEVGMVKCGSRRE | 2.56 |
| ISCQACRLRKCYEVGMVKCGSRRE | 2.78 |
| LSCQACRLRKCYEVGMVKCGSRRE | 1.95 |
| PSCQACRLRKCYEVGMVKCGSRRE | 2.35 |
| ASCQACRLRKCYEVGMVKCGSRRE | 2.89 |
| NSCQACRLRKCYEVGMVKCGSRRE | 1.59 |
| FSCQACRLRKCYEVGMVKCGSRRE | 2.31 |
| KSCQACRLRKKYEVGMVKCGSRRE | 2.3 |
| KSCQACRLRKTYEVGMVKCGSRRE | 2.29 |
| KSCQACRLRKIYEVGMVKCGSRRE | 2.19 |
| KSCQACRLRKFYEVGMVKCGSRRE | 2.52 |
| KSCQACRLRKHYEVGMVKCGSRRE | 1.74 |
| KSCQACRLRKVYEVGMVKCGSRRE | 2.47 |
| KSCQACRLRKDYEVGMVKCGSRRE | 2.72 |
| KSCQACRLRKEYEVGMVKCGSRRE | 1.57 |
| KSCQACRLRKPYEVGMVKCGSRRE | 1.38 |
| KSCQACRLRKCYEVGMVKCHSRRE | 2.75 |
| KSCQACRLRKCYEVGMVKCLSRRE | 1.73 |
| KSCQACRLRKCYEVGMVKCCSRRE | 1.95 |
| KSCQACRLRKCYEVGMVKCSSRRE | 1.81 |
